Experimental findings from patent US10744088B2, “Method for preparing ophthalmic preparation containing thymosin beta-4” (G-TREEBNT CO., LTD., priority 2015, dated 2020) are described below.

Data set [1] can be described thus: Purity analysis of ophthalmic preparations by HPLC. Particulars: after preparation, HPLC UV 205 nm. Type of data set: physicochemical. The method, then:
The purity changes of the ophthalmic preparations prepared in the above Examples and Comparative Examples were analyzed during the period from the initial time after preparation to 12 months later with a high performance liquid chromatography (HPLC), Agilent 1200 instrument under the conditions in Tables 1 and 2, and the results are shown in Table 3.

Data set [2] is described as follows: Impurity analysis (single maximum impurity, thymosin β4 sulfoxide) by HPLC and LC/MS. Type of data set: physicochemical. Particulars: after preparation; impurity identified as thymosin β4 sulfoxide. As for the experimental part: The amounts of impurities in the ophthalmic preparations prepared in the above Examples and Comparative Examples were analyzed as following, and the results are shown in Table 3.
Specifically, thymosin β4 sulfoxide was synthesized following the methods in the paper (Eur. J. Biochem. 223, 345-350 (1994), Nature Medicine 5(12), 1424 (1999)). Thymosin β4 sulfoxide is a substance modified from thymosin β4 by oxidation, which causes a change in its pharmacological activity compared to thymosin β4.
The molecular weight of the synthesized thymosin β4 sulfoxide was identified by mass analysis (LC/MS) using the MALDI-TOF MS instrument. The analyzed molecular weight was 4,978.5, which was consistent with the value in the document of 4,980±2.
The ophthalmic preparations prepared in Example 1 and Comparative Examples 1 and 2 and the synthesized thymosin β4 sulfoxide were analyzed by HPLC and LC/MS under the same conditions.

Turning to “thymosin β4 acetate [Thymosin β4 (raw material)]”, the “Purity (%)” value in data set [1] is listed as 99.3%. Further, the “Single maximum impurity (%)” value in data set [2] is “Not detected”.
